Consider two substances from US20240301030A1.

For assay [1], the target named is SORLA with C-terminal fusion of the C-terminal fragment of venus fluorescent protein (human) (UniProt Q92673). Briefly: cell-based or functional assay.
In assay [2] the target is full-length SORLA with C-terminal GFP-tag (human) (UniProt Q92673). Briefly: cell-based or functional assay.

In the case of “SORLA with C-terminal fusion of the N-terminal fragment of venus fluorescent protein, Q92673 82-2214”, in assay [1], the Mander's coefficient, overlap between the green venus signal specific for SORLA dimers and the total SORLA pool was 0.37. In turn, “full-length SORLA with C-terminal FLAG-tag, Q92673 82-2214” came in with a Mander's coefficient, co-localization between the PLA signal (representing SORLA dimers) and SORLA-GFP (representing both monomers and dimers) in assay [2] of 0.35.
